Measured values reported in paper PMC5303882, “Structure of the homodimeric androgen receptor ligand-binding domain” (Nature Communications, 2017).

Target: T1, Recombinant human androgen receptor ligand-binding domain (AR-LBD, residues 662-919), DHT-bound (human, UniProt P10275 662-919)
T1 construct: also called AR/NR3C4 LBD; liganded AR-LBD; source: recombinant, expressed as a fusion protein with thioredoxin, purified to homogeneity
Assay: SPR; BIAcore T200, 25 °C; DHT-bound AR-LBD amine-coupled to a CM5 chip at about 6,800 RU, UBA3 peptide as analyte; 50 mM HEPES pH 7.2, 50 mM Li2SO4, 5% glycerol, 1 mM DTT, 5 mM DHT; 1:1 Langmuir model; triplicate
Settings: both partners purified

Kd: 30.6 ± 0.7 nM
B1: Synthetic UBA3 peptide S59-V72 (LxxLL motif) (peptide)
peptide: STESLQFLLDTCKV
notes: also called UBA3-derived peptide; UBA3 59S-72V peptide; source: synthetic peptide, custom-synthesized at Pepmic
